Source: US20190359693A1 (Janssen / Centocor, published 2019)

How the values were obtained:
HA of B/Lee/40 = HA of B/Lee/40 (influenza B virus, UniProt P03460 16-552); experiment: cell-based or functional assay
[1] = molecular target: HA of B/Malaysia/2506/04 (Victoria) (influenza B virus); experiment: cell-based or functional assay
[2] = molecular target: HA of B/Massachusetts/02/12 (Yamagata) (influenza B virus); experiment: cell-based or functional assay
[3] = molecular target: HA of B/Harbin/7/94 (Yamagata) (influenza B virus); experiment: cell-based or functional assay
[4] = molecular target: HA of H5N1 A/Vietnam/1194/04 (influenza A virus); experiment: cell-based or functional assay
[5] = molecular target: HA of B/Harbin/7/94 (Yamagata) (influenza B virus); experiment: cell-based or functional assay; remark: listed apart in the source
[6] = molecular target: HA of H14N5 A/Mallard/Astrakhan/263/1982 (influenza A virus); experiment: cell-based or functional assay
[7] = molecular target: HA of H5N1 A/Indonesia/5/05 (influenza A virus); experiment: cell-based or functional assay
HA of H3N2 A/HK/1/68 [8] = molecular target: T1, HA of H3N2 A/HK/1/68 (influenza A virus, UniProt Q91MA7 17-530); experiment: cell-based or functional assay
[9] = molecular target: HA of H2N2 A/Env/HK/MPU3156/05 (influenza A virus); experiment: cell-based or functional assay
[10] = molecular target: HA of H8N4 A/Eurasian Wigeon/MPH571/08 (influenza A virus); experiment: cell-based or functional assay
HA of H3N2 A/Fukui/45/04 = HA of H3N2 A/Fukui/45/04 (influenza A virus); experiment: cell-based or functional assay
[11] = molecular target: HA of H1N1 A/Solomon Islands/3/2006 (IVR 145) (influenza A virus); experiment: cell-based or functional assay
HA of H3N2 A/Aichi/2/68 = HA of H3N2 A/Aichi/2/68 (influenza A virus, UniProt P03437 17-566); experiment: cell-based or functional assay
[12] = molecular target: HA of H6N1 A/Taiwan/2/2013 (influenza A virus); experiment: cell-based or functional assay
[13] = molecular target: HA of H11N9 A/Northern Pintail/MPC2085/07 (influenza A virus); experiment: cell-based or functional assay
[14] = molecular target: HA of H5N2 A/Eurasian Wigeon/MPF461/07 (influenza A virus); experiment: cell-based or functional assay
[15] = molecular target: HA of H4N1 A/Northern Pintail/MPB1368/06 (influenza A virus); experiment: cell-based or functional assay
[16] = molecular target: HA of H6N8 A/Eurasian Wigeon/MPD411/07 (influenza A virus); experiment: cell-based or functional assay
HA of H3N2 A/Perth/16/09 = HA of H3N2 A/Perth/16/09 (influenza A virus); experiment: cell-based or functional assay
[17] = molecular target: HA of H9N2 A/Great Cormorant/MP2934/04 (influenza A virus); experiment: cell-based or functional assay
[18] = molecular target: HA of B/Florida/04/2006 (Yamagata) (influenza B virus); experiment: cell-based or functional assay
[19] = molecular target: HA of H10N3 A/Common Teal/MPH11/08 (influenza A virus); experiment: cell-based or functional assay
[20] = molecular target: HA of H8N2 A/Env/MPJ1258/09 (influenza A virus); experiment: cell-based or functional assay
[21] = molecular target: HA of H6N1 A/Eurasian Wigeon/MPG1884/09 (influenza A virus); experiment: cell-based or functional assay
[22] = molecular target: HA of H2N2 A/Guiyang/1/57 (influenza A virus); experiment: cell-based or functional assay
[23] = molecular target: HA of H7N7 A/Common Teal/MPF139/07 (influenza A virus); experiment: cell-based or functional assay
[24] = molecular target: HA of H4 A/WF/HK/MPA892/06 (influenza A virus); experiment: cell-based or functional assay
[25] = molecular target: HA of H10N8 A/Jiangxi/346/2013 (influenza A virus); experiment: cell-based or functional assay
[26] = molecular target: HA of H3N2 A/Johannesburg/33/94 (influenza A virus); experiment: cell-based or functional assay
[27] = molecular target: HA of H4N6 A/Great Cormorant/MPB1683/06 (influenza A virus); experiment: cell-based or functional assay
[28] = molecular target: HA of H5N2 A/Eurasian Wigeon/HK/MPF333/07 (influenza A virus); experiment: cell-based or functional assay
[29] = molecular target: HA of H2N2 A/WF/HK/MPU3156/05 (influenza A virus); experiment: cell-based or functional assay
[30] = molecular target: HA of H1N2 A/Env/HK/MPU3156/05 (influenza A virus); experiment: cell-based or functional assay
[31] = molecular target: T2, HA of H7N7 A/Netherlands/219/2003 (influenza A virus, UniProt P36346 19-563); experiment: cell-based or functional assay
HA of H7N9 A/Anhui/1/13 = HA of H7N9 A/Anhui/1/13 (influenza A virus); experiment: cell-based or functional assay
[32] = molecular target: HA of H7N7 A/Northern Shoveler/MPF518/08 (influenza A virus); experiment: cell-based or functional assay
HA of H7N7 A/PR8 H7N7-NY = HA of H7N7 A/PR8 H7N7-NY (influenza A virus); experiment: cell-based or functional assay
[33] = molecular target: HA of H12N5 A/Env/MPK659/09 (influenza A virus); experiment: cell-based or functional assay
[34] = molecular target: HA of H3N2 A/Victoria/210/09 (influenza A virus); experiment: cell-based or functional assay
HA of H1N1 A/WSN/33 = HA of H1N1 A/WSN/33 (influenza A virus, UniProt P03454 18-565); experiment: cell-based or functional assay
[35] = molecular target: HA of H1N1 A/Mississippi/03/01 274H (influenza A virus); experiment: cell-based or functional assay
[36] = molecular target: HA of H10N7 A/Chick/Germany/N/49 (influenza A virus); experiment: cell-based or functional assay
[37] = molecular target: HA of H7N9 A/Shanghai/2/13 (influenza A virus); experiment: cell-based or functional assay
[38] = molecular target: HA of H9N2 A/Ck/HK/SSP176/09 (influenza A virus); experiment: cell-based or functional assay
[39] = molecular target: HA of H10N9 A/Northern Shoveler/MPE2531/08 (influenza A virus); experiment: cell-based or functional assay
HA of H1N1 A/HK/54/98 = HA of H1N1 A/HK/54/98 (influenza A virus); experiment: cell-based or functional assay
[40] = molecular target: HA of H9N2 A/HK/466419/09 (influenza A virus); experiment: cell-based or functional assay
[41] = molecular target: HA of H2N2 A/AnnArbor/23/57 (influenza A virus); experiment: cell-based or functional assay
[42] = molecular target: HA of H1N1 A/Christchurch/16/10 (influenza A virus); experiment: cell-based or functional assay
[43] = molecular target: HA of H7N9 A/Shanghai/1/13 (influenza A virus); experiment: cell-based or functional assay
[44] = molecular target: T2, HA of H7N7 A/Netherlands/219/2003; experiment: AlphaLISA competition vs CR9114
HA of H3N2 A/HK/1/68 [45] = molecular target: T1, HA of H3N2 A/HK/1/68; experiment: BLI steady state

B1: SD1084 (VHH)
VHH: EVQLVESGGGLVQPGGSLKLSCAASGFTFSTSWMYWLRQAPGKGLEWVSVINTDGGTYYADSVKDRFTISRDNAKDTLYLQMSSLKSEDTAVYYCAKDWGGPEPTRGQGTQVTVSS
B1 showed a VNA titer (HA of B/Lee/40) greater than 1000 nM, a VNA titer [1] of 34.9 nM and a VNA titer [2] of 40 nM. It also gave a VNA titer [3] of 240 nM, a hemagglutination inhibition titer [4] greater than 50 µg/mL and a hemagglutination inhibition titer [5] of 1.1 µg/mL.

B2: SD1038 (VHH)
VHH: EVQLVESGGGLVQPGGSLRLSCAVSISIFDIYAMDWYRQAPGKQRDLVATSFRDGSTNYADSVKGRFTISRDNAKNTLYLQMNSLKPEDTAVYLCHVSLYRDPLGVAGGMGVYWGKGALVTVSS
notes: llama sdAb
B2 gave a VNA titer [6] of 253 nM, a VNA titer [7] of 32.8 nM and a VNA titer (HA of H3N2 A/HK/1/68 [8]) of 40.2 nM. For the same binder, the VNA titer [9] was 23.2 nM, the VNA titer [10] was 53.4 nM and the VNA titer (HA of H3N2 A/Fukui/45/04) was 632 nM. For the same binder, the VNA titer [11] was 4.1 nM, the VNA titer (HA of H3N2 A/Aichi/2/68) was 127 nM and the VNA titer [12] was 15.3 nM. For the same binder, the VNA titer [13] was 160 nM, the VNA titer [14] was 18.8 nM and the VNA titer [15] was 485 nM. It also gave a VNA titer [16] of 13.2 nM, a VNA titer (HA of H3N2 A/Perth/16/09) of 253 nM and a VNA titer [17] of 105 nM. It also gave a VNA titer [18] greater than 1000 nM, a VNA titer [19] of 301 nM and a VNA titer [20] of 58.7 nM. The VNA titer [21] was 16.2 nM, the VNA titer [22] was 102 nM and the VNA titer [23] was 359 nM. The VNA titer [24] was greater than 1000 nM, the VNA titer [25] was 239 nM and the VNA titer [26] was 443 nM. The VNA titer [27] was 275 nM, the VNA titer [28] was 11 nM and the VNA titer [29] was 31.4 nM. It also gave a VNA titer [30] of 40.5 nM, a VNA titer [31] of 181 nM and a VNA titer (HA of H7N9 A/Anhui/1/13) of 253 nM. It also gave a VNA titer [32] of 441 nM, a VNA titer (HA of H7N7 A/PR8 H7N7-NY) of 80.6 nM and a VNA titer [33] greater than 1000 nM. The VNA titer [34] was 253 nM, the VNA titer (HA of H1N1 A/WSN/33) was 5 nM and the VNA titer [35] was 4.7 nM. It also gave a VNA titer [36] of 469 nM, a VNA titer [37] of 239 nM and a VNA titer [38] of 90.8 nM. For the same binder, the VNA titer [39] was 327 nM, the VNA titer (HA of H1N1 A/HK/54/98) was 16.5 nM and the VNA titer [40] was 700 nM. The VNA titer [41] was 33 nM, the VNA titer [42] was 2.6 nM and the VNA titer [43] was 503 nM. It also gave a pIC50 [44] of 7.5 and a Kd (HA of H3N2 A/HK/1/68 [45]) of 44 nM.
